Source: publication PMC2185562
“And” between values parts separate entries of the source, which are not always exact repeats. Equal values may be shown once.

Molecular target: endogenous ezrin of LLC-PK1 cells (pig (endogenous in LLC-PK1)) (UniProt F1SB42)
Assay: SEC

endogenous ezrin of LLC-PK1 cells (from UniProt F1SB42 1-551) (natural protein)
percent of the ezrin of the fraction that is oligomers: 15% and 28% | percent of the total cellular ezrin found as oligomers in this fraction: 12.3% and 2.6%
